Stoichiometry N, relative proteolytic activity on the FRET peptide substrate, percent of WT and share of the monomer form data for 19 substances are collected here from PMC9091064.

For assay [1], the target named is SARS-CoV-2 3CLpro E290Q (SARS-CoV-2). The assay is described as follows: SEC.
In assay [2] the target is SARS-CoV-2 3CLpro R4Q (SARS-CoV-2). The assay is described as follows: SEC.
Assay [3] addresses SARS-CoV-2 3CLpro K12A (SARS-CoV-2).
Assay [4] shares this target. As to the kind of experiment: SEC.
The target of assay [5] is SARS-CoV-2 3CLpro Q299A (SARS-CoV-2). The assay is described as follows: SEC.
In assay [6] the target is SARS-CoV-2 3CLpro S10T (SARS-CoV-2). As to the kind of experiment: SEC.
In assay [7] the target is SARS-CoV-2 3CLpro Q299N (SARS-CoV-2). The assay is described as follows: SEC.
Assay [8] deals with SARS-CoV-2 3CLpro Q299E (SARS-CoV-2). As to the kind of experiment: SEC.
Assay [9] has as its target SARS-CoV-2 3CLpro S10A (SARS-CoV-2). The assay is described as follows: SEC.
For assay [10], the target named is SARS-CoV-2 3CLpro E14S (SARS-CoV-2). As to the kind of experiment: SEC.
Assay [11] concerns the target SARS-CoV-2 3CLpro E290Y (SARS-CoV-2). The assay is described as follows: SEC.
For assay [12], the target named is SARS-CoV-2 3CLpro E290A (SARS-CoV-2). As to the kind of experiment: SEC.
The target in assay [13] is SARS-CoV-2 3CLpro S10C (SARS-CoV-2). As to the kind of experiment: SEC.
The target in assay [14] is SARS-CoV-2 3CLpro E290D (SARS-CoV-2). The assay is described as follows: SEC.
In assay [15] the target is SARS-CoV-2 3CLpro E14Q (SARS-CoV-2). The assay is described as follows: SEC.
Assay [16] concerns the target SARS-CoV-2 3CLpro E14A (SARS-CoV-2). As to the kind of experiment: SEC.
Assay [17] has as its target SARS-CoV-2 3CLpro S1A (SARS-CoV-2). The assay is described as follows: SEC.
The target in assay [18] is SARS-CoV-2 3CLpro E14D (SARS-CoV-2). As to the kind of experiment: SEC.
For assay [19], the target named is SARS-CoV-2 3CLpro S139A (SARS-CoV-2). The assay is described as follows: SEC.
In assay [20] the target is SARS-CoV-2 3CLpro R4A (SARS-CoV-2). The assay is described as follows: SEC.

SARS-CoV-2 3CLpro E290Q (enzyme) gave a stoichiometry N in assay [1] of 2. With SARS-CoV-2 3CLpro R4Q (enzyme), in assay [2], the stoichiometry N was determined as 2. Take SARS-CoV-2 3CLpro K12A (enzyme): the relative proteolytic activity on the FRET peptide substrate, percent of WT in [3] came to 60%. In [4], this substance came in with a share of the monomer form of 60% and a stoichiometry N of 2. SARS-CoV-2 3CLpro Q299A (enzyme) gave a stoichiometry N in [5] of 2. Consider SARS-CoV-2 3CLpro S10T (enzyme), for which the stoichiometry N in assay [6] came out at 2. As to SARS-CoV-2 3CLpro Q299N (enzyme), the stoichiometry N in assay [7] was 2. In assay [8], SARS-CoV-2 3CLpro Q299E (enzyme) returned a stoichiometry N of 2.

SARS-CoV-2 3CLpro S10A (enzyme) showed a stoichiometry N in [9] of 2. Consider SARS-CoV-2 3CLpro E14S (enzyme), for which the stoichiometry N in assay [10] was determined as 2. Take SARS-CoV-2 3CLpro E290Y (enzyme): the stoichiometry N in [11] came to 2. SARS-CoV-2 3CLpro E290A (enzyme) had a stoichiometry N in assay [12] of 2. The substance SARS-CoV-2 3CLpro S10C (enzyme) came in with a stoichiometry N in assay [13] of 2. In assay [14], SARS-CoV-2 3CLpro E290D (enzyme) displayed a stoichiometry N of 2. The substance SARS-CoV-2 3CLpro E14Q (enzyme) showed a stoichiometry N in [15] of 2.

In [16], SARS-CoV-2 3CLpro E14A (enzyme) showed a stoichiometry N of 2. SARS-CoV-2 3CLpro S1A (enzyme): the stoichiometry N in assay [17] was found to be 2.

Regarding SARS-CoV-2 3CLpro E14D (enzyme), the stoichiometry N in assay [18] was 2.

As for SARS-CoV-2 3CLpro S139A (enzyme), in assay [19], the stoichiometry N was 2. In assay [20], SARS-CoV-2 3CLpro R4A (enzyme) returned a stoichiometry N of 2.
